Results: patent US20210238260

B1: FIXa-Y155F/K247N/N249S/R318Y/R403E/E410N (protein)
chain 1: YNSGKLEEFVQGNLERECMEEKCSFEEAREVFENTERTTEFWKQYVDGDQCESNPCLNGGSCKDDINSYECWCPFGFEGKNCELDVTCNIKNGRCEQFCKNSADNKVVCSCTEGYRLAENQKSCEPAVPFPCGRVSVSQTSKLTR
chain 2: VVGGEDAKPGQFPWQVVLNGKVDAFCGGSIVNEKWIVTAAHCVETGVKITVVAGEHNIEETEHTEQNRSVIRIIPHHNYNAAINKYNHDIALLELDEPLVLNSYVTPICIADKEYTNIFLKFGSGYVSGWGRVFHKGYSALVLQYLRVPLVDRATCLRSTKFTIYNNMFCAGFHEGGRDSCQGDSGGPHVTEVEGTSFLTGIISWGEECAMKGKYGIYTKVSEYVNWIKNKTKLT
B2: FIXa variant D203N/F205T/R318Y/E410N (protein)
chain 1: YNSGKLEEFVQGNLERECMEEKCSFEEAREVFENTERTTEFWKQYVDGDQCESNPCLNGGSCKDDINSYECWCPFGFEGKNCELDVTCNIKNGRCEQFCKNSADNKVVCSCTEGYRLAENQKSCEPAVPFPCGRVSVSQTSKLTR
chain 2: VVGGEDAKPGQFPWQVVLNGKVNATCGGSIVNEKWIVTAAHCVETGVKITVVAGEHNIEETEHTEQKRNVIRIIPHHNYNAAINKYNHDIALLELDEPLVLNSYVTPICIADKEYTNIFLKFGSGYVSGWGRVFHKGYSALVLQYLRVPLVDRATCLRSTKFTIYNNMFCAGFHEGGRDSCQGDSGGPHVTEVEGTSFLTGIISWGEECAMKGKYGIYTKVSRYVNWIKNKTKLT
B3: FIXa-Y155F/R318Y/R338E/T343R/R403E (protein)
chain 1: YNSGKLEEFVQGNLERECMEEKCSFEEAREVFENTERTTEFWKQYVDGDQCESNPCLNGGSCKDDINSYECWCPFGFEGKNCELDVTCNIKNGRCEQFCKNSADNKVVCSCTEGYRLAENQKSCEPAVPFPCGRVSVSQTSKLTR
chain 2: VVGGEDAKPGQFPWQVVLNGKVDAFCGGSIVNEKWIVTAAHCVETGVKITVVAGEHNIEETEHTEQKRNVIRIIPHHNYNAAINKYNHDIALLELDEPLVLNSYVTPICIADKEYTNIFLKFGSGYVSGWGRVFHKGYSALVLQYLRVPLVDRATCLESTKFRIYNNMFCAGFHEGGRDSCQGDSGGPHVTEVEGTSFLTGIISWGEECAMKGKYGIYTKVSEYVNWIKEKTKLT
B4: FIXa-Y155F/K247N/N249S/R338E/R403E/E410N (protein)
chain 1: YNSGKLEEFVQGNLERECMEEKCSFEEAREVFENTERTTEFWKQYVDGDQCESNPCLNGGSCKDDINSYECWCPFGFEGKNCELDVTCNIKNGRCEQFCKNSADNKVVCSCTEGYRLAENQKSCEPAVPFPCGRVSVSQTSKLTR
chain 2: VVGGEDAKPGQFPWQVVLNGKVDAFCGGSIVNEKWIVTAAHCVETGVKITVVAGEHNIEETEHTEQNRSVIRIIPHHNYNAAINKYNHDIALLELDEPLVLNSYVTPICIADKEYTNIFLKFGSGYVSGWGRVFHKGRSALVLQYLRVPLVDRATCLESTKFTIYNNMFCAGFHEGGRDSCQGDSGGPHVTEVEGTSFLTGIISWGEECAMKGKYGIYTKVSEYVNWIKNKTKLT
B5: FIXa-K247N/N249S/R318Y/R403E/E410N (protein)
chain 1: YNSGKLEEFVQGNLERECMEEKCSFEEAREVFENTERTTEFWKQYVDGDQCESNPCLNGGSCKDDINSYECWCPFGFEGKNCELDVTCNIKNGRCEQFCKNSADNKVVCSCTEGYRLAENQKSCEPAVPFPCGRVSVSQTSKLTR
chain 2: VVGGEDAKPGQFPWQVVLNGKVDAFCGGSIVNEKWIVTAAHCVETGVKITVVAGEHNIEETEHTEQNRSVIRIIPHHNYNAAINKYNHDIALLELDEPLVLNSYVTPICIADKEYTNIFLKFGSGYVSGWGRVFHKGYSALVLQYLRVPLVDRATCLRSTKFTIYNNMFCAGFHEGGRDSCQGDSGGPHVTEVEGTSFLTGIISWGEECAMKGKYGIYTKVSEYVNWIKNKTKLT
B6: FIXa variant D104N/K106S/Y155F/R318Y/R338E/R403E/E410N (protein)
chain 1: YNSGKLEEFVQGNLERECMEEKCSFEEAREVFENTERTTEFWKQYVDGDQCESNPCLNGGSCKDDINSYECWCPFGFEGKNCELDVTCNIKNGRCEQFCKNSANNSVVCSCTEGYRLAENQKSCEPAVPFPCGRVSVSQTSKLTR
chain 2: VVGGEDAKPGQFPWQVVLNGKVDAFCGGSIVNEKWIVTAAHCVETGVKITVVAGEHNIEETEHTEQKRNVIRIIPHHNYNAAINKYNHDIALLELDEPLVLNSYVTPICIADKEYTNIFLKFGSGYVSGWGRVFHKGYSALVLQYLRVPLVDRATCLESTKFTIYNNMFCAGFHEGGRDSCQGDSGGPHVTEVEGTSFLTGIISWGEECAMKGKYGIYTKVSEYVNWIKNKTKLT
B7: FIXa-D104N/K106S/Y155F/K247N/N249S/R318Y/R338E/R403E/E410N (protein)
chain 1: YNSGKLEEFVQGNLERECMEEKCSFEEAREVFENTERTTEFWKQYVDGDQCESNPCLNGGSCKDDINSYECWCPFGFEGKNCELDVTCNIKNGRCEQFCKNSANNSVVCSCTEGYRLAENQKSCEPAVPFPCGRVSVSQTSKLTR
chain 2: VVGGEDAKPGQFPWQVVLNGKVDAFCGGSIVNEKWIVTAAHCVETGVKITVVAGEHNIEETEHTEQNRSVIRIIPHHNYNAAINKYNHDIALLELDEPLVLNSYVTPICIADKEYTNIFLKFGSGYVSGWGRVFHKGYSALVLQYLRVPLVDRATCLESTKFTIYNNMFCAGFHEGGRDSCQGDSGGPHVTEVEGTSFLTGIISWGEECAMKGKYGIYTKVSEYVNWIKNKTKLT
B8: FIXa-K247N/N249S/R338E/R403E/E410N (protein)
chain 1: YNSGKLEEFVQGNLERECMEEKCSFEEAREVFENTERTTEFWKQYVDGDQCESNPCLNGGSCKDDINSYECWCPFGFEGKNCELDVTCNIKNGRCEQFCKNSADNKVVCSCTEGYRLAENQKSCEPAVPFPCGRVSVSQTSKLTR
chain 2: VVGGEDAKPGQFPWQVVLNGKVDAFCGGSIVNEKWIVTAAHCVETGVKITVVAGEHNIEETEHTEQNRSVIRIIPHHNYNAAINKYNHDIALLELDEPLVLNSYVTPICIADKEYTNIFLKFGSGYVSGWGRVFHKGRSALVLQYLRVPLVDRATCLESTKFTIYNNMFCAGFHEGGRDSCQGDSGGPHVTEVEGTSFLTGIISWGEECAMKGKYGIYTKVSEYVNWIKNKTKLT
B9: FIXa-R318Y/R338E/T343R/R403E (protein)
chain 1: YNSGKLEEFVQGNLERECMEEKCSFEEAREVFENTERTTEFWKQYVDGDQCESNPCLNGGSCKDDINSYECWCPFGFEGKNCELDVTCNIKNGRCEQFCKNSADNKVVCSCTEGYRLAENQKSCEPAVPFPCGRVSVSQTSKLTR
chain 2: VVGGEDAKPGQFPWQVVLNGKVDAFCGGSIVNEKWIVTAAHCVETGVKITVVAGEHNIEETEHTEQKRNVIRIIPHHNYNAAINKYNHDIALLELDEPLVLNSYVTPICIADKEYTNIFLKFGSGYVSGWGRVFHKGYSALVLQYLRVPLVDRATCLESTKFRIYNNMFCAGFHEGGRDSCQGDSGGPHVTEVEGTSFLTGIISWGEECAMKGKYGIYTKVSEYVNWIKEKTKLT
B10: FIXa variant A103N/N105S/Y155F/R318Y/R338E/R403E/E410N (protein)
chain 1: YNSGKLEEFVQGNLERECMEEKCSFEEAREVFENTERTTEFWKQYVDGDQCESNPCLNGGSCKDDINSYECWCPFGFEGKNCELDVTCNIKNGRCEQFCKNSNDSKVVCSCTEGYRLAENQKSCEPAVPFPCGRVSVSQTSKLTR
chain 2: VVGGEDAKPGQFPWQVVLNGKVDAFCGGSIVNEKWIVTAAHCVETGVKITVVAGEHNIEETEHTEQKRNVIRIIPHHNYNAAINKYNHDIALLELDEPLVLNSYVTPICIADKEYTNIFLKFGSGYVSGWGRVFHKGYSALVLQYLRVPLVDRATCLESTKFTIYNNMFCAGFHEGGRDSCQGDSGGPHVTEVEGTSFLTGIISWGEECAMKGKYGIYTKVSEYVNWIKNKTKLT

Factor X, P00742, sequence (P00742 whole entry, looked up): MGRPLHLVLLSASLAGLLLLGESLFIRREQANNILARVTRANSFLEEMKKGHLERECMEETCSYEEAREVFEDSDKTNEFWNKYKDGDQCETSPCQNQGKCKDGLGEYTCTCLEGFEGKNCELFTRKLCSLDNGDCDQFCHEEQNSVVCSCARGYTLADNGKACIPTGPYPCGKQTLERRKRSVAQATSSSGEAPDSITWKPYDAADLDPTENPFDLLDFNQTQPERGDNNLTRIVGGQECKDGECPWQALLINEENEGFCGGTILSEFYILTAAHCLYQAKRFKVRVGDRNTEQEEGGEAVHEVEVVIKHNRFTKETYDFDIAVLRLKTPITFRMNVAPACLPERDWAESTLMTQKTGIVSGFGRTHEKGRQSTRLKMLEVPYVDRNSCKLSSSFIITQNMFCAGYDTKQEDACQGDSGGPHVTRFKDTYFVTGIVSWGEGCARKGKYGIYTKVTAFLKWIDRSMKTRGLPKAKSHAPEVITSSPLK
Factor X (FX), P00742, sequence (P00742 whole entry, looked up): as above

Protein	% of WT kcat/KM (Factor X, P00742) [%]	kcat (Factor X, P00742) [s⁻¹]	kcat/KM (Factor X, P00742) [M⁻¹ s⁻¹]	% of WT kcat/KM (Factor X (FX), P00742) [%]	kcat/KM (Factor X (FX), P00742) [M⁻¹ s⁻¹]
B1	22	1.2	1e+07	–	–
B2	–	–	–	85	3.9e+07
B3	563	8.2	2.6e+08	–	–
B4	229	5	1.1e+08	–	–
B5	58	2.9	2.7e+07	–	–
B6	–	–	–	382	1.8e+08
B7	–	–	–	292	1.3e+08
B8	422	4.8	1.9e+08	–	–
B9	357	6.7	1.6e+08	–	–
B10	–	–	–	274	1.3e+08
